The target in the assay is human TLR5 on HEK-Blue-hTLR5 cells (human) (UniProt O60602). As to the kind of experiment: cell-based or functional assay.

The results in this text go back to US20130323281A1.

Chain of UniProt O60602 (O60602 21-858): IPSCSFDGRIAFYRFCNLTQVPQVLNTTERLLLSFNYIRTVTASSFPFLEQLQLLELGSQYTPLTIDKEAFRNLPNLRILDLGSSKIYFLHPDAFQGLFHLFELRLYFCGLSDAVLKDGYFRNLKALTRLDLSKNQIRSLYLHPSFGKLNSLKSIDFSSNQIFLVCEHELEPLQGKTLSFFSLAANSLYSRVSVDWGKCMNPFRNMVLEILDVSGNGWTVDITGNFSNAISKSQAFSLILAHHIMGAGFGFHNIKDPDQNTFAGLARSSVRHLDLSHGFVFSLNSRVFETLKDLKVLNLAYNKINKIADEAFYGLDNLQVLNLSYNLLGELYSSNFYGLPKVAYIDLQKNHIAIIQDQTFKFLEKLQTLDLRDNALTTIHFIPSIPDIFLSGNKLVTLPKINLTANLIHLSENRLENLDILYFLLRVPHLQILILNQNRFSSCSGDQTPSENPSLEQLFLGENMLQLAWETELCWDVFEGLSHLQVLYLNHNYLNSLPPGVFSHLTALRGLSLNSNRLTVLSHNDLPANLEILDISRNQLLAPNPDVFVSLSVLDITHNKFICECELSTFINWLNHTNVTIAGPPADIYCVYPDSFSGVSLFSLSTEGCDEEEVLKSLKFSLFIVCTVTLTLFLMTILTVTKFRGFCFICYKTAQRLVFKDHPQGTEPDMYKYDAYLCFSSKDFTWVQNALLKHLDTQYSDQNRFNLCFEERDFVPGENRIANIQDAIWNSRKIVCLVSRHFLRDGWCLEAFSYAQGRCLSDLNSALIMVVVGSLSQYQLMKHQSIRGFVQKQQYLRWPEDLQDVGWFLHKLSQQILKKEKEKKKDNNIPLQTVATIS

As to “flagellin (G239HPG, M310I, M466I) conjugated to Hepatitis B core (HBc) VLP by azide-alkyne click reaction”, the flagellin bioactivity (SEAP reporter, HEK-Blue-hTLR5 cells), fold against free flagellin was 10 fold.

In the case of “flagellin (fliC gene product) from Salmonella typhimurium SL1344, wild-type, produced by cell-free protein synthesis (from UniProt P06179 2-495) (ligand)”, the EC50 in flagellin bioactivity assay (SEAP reporter, HEK-Blue-hTLR5 cells) is 2.4 pM and the bioactivity assay (SEAP reporter, HEK-Blue-hTLR5 cells), given as 'affinity' came out at 6 pM.

The substance “flagellin Mutation III (M1HPG, Ala2Ile, M310I, M466I) conjugated to Hepatitis B core (HBc) VLP” displayed a bioactivity assay (SEAP reporter, HEK-Blue-hTLR5 cells), fold against free flagellin of 5 fold.
